Reference: article doi:10.1101/2020.06.01.127704 (bioRxiv, 2020)

Target: the molecule itself
Assay: cryo-EM structure

B1: full-length human excitatory amino acid transporter 3 with two potential glycosylation sites mutated (N178T and N195T) (natural protein, UniProt P43005 1-524, looked up)
chain: MGKPARKGCEWKRFLKNNWVLLSTVAAVVLGITTGVLVREHSNLSTLEKFYFAFPGEILMRMLKLIILPLIISSMITGVAALDSNVSGKIGLRAVVYYFCTTLIAVILGIVLVVSIKPGVTQKVGEIARTGSTPEVSTVDAMLDLIRNMFPENLVQACFQQYKTKREEVKPPSDPEMTMTEESFTAVMTTAISKTKTKEYKIVGMYSDGINVLGLIVFCLVFGLVIGKMGEKGQILVDFFNALSDATMKIVQIIMCYMPLGILFLIAGKIIEVEDWEIFRKLGLYMATVLTGLAIHSIVILPLIYFIVVRKNPFRFAMGMAQALLTALMISSSSATLPVTFRCAEENNQVDKRITRFVLPVGATINMDGTALYEAVAAVFIAQLNDLDLGIGQIITISITATSASIGAAGVPQAGLVTMVIVLSAVGLPAEDVTLIIAVDWLLDRFRTMVNVLGDAFGTGIVEKLSKKELEQMDVSSEVNIVNPFALESTILDNEDSDTKKSYVNGGFAVDKSDTISFTQTSQF
In the case of B1, the “stoichiometry N” value is reported as 3.
